Test results taken from the RNAGym collection of RNA variant scans (doi:10.1021/acssynbio.7b00057).

B1: Pistol ribozyme (parent)
chain: GGGUCGUUGUUCCAUAAUCGCGUGGAUAUGGCACGCAAGUUUCUACCGGGCACCGUAAAUGUCCGACUGGAGCCGUUCGGGCGGCUAUAAACAGACCUCAGGCCCGAAGCGUGGCGGCACCUGCCGCCGGUGGUAAAAAAGAUCGGAAGAGCACACGUCU

Variants of: B1
Test: aptazyme ON/OFF ratio, guanine; higher = stronger switching; co-transcriptional cleavage with and without guanine

Going from U7G U8G G9U C12G to U7G U8G G9U C12U, the “aptazyme ON/OFF ratio” value rises from 1.18 to 1.66.

Compared with U7G U8G G9U C12A, U7G U8G G9U U11C C12A is higher in “aptazyme ON/OFF ratio” value: 1.56 for the first, 1.8 for the second.

Compared with U7G U8G G9U U11C C12U, U7G U8G G9U U11C C12G is lower in “aptazyme ON/OFF ratio” value: 1.65 for the first, 1.43 for the second.

Going from U7G U8G G9U U10A C12A C13G to U7G U8G G9U U10A C12A C13U, the “aptazyme ON/OFF ratio” value rises from 1.14 to 1.15.

Going from U7G U8G G9U U10A C12A C13A to U7G U8G U10A U11A C12U C13A, the “aptazyme ON/OFF ratio” value rises from 1.21 to 1.44.

Compared with U7G U8G U10A U11A C12U C13U, U7G U8G U10A U11A C12U C13G is higher in “aptazyme ON/OFF ratio” value: 1.15 for the first, 1.22 for the second.

Going from U7G U8G U10A C13G to U7G U8G U10A C13A, the “aptazyme ON/OFF ratio” value rises from 1.29 to 1.34.

First: U7G U8G U10A C13U
Second: U7G U8G G9U U10A U11A C12G C13A
The “aptazyme ON/OFF ratio” value of the first is higher: 1.36 for the first, 1.2 for the second.

Compared with U7G U8G G9U U10A U11A C12G C13G, U7G U8G G9U U10A U11A C12G C13U is higher in “aptazyme ON/OFF ratio” value: 1.11 for the first, 1.14 for the second.

Going from U7G U8G G9U U10C U11G C13U to U7G U8G G9U U10C U11G C13G, the “aptazyme ON/OFF ratio” value falls from 1.28 to 1.21.

Compared with U7G U8G G9U U10C U11G C13A, U7G U8G G9U C12G C13G is higher in “aptazyme ON/OFF ratio” value: 1.22 for the first, 1.31 for the second.

Going from U7G U8G G9U C12G C13U to U7G U8G G9U C12G C13A, the “aptazyme ON/OFF ratio” value rises from 1.27 to 1.3.

Compared with U7G U8G G9C U11A C13A, U7G U8G G9C U11A C13G is lower in “aptazyme ON/OFF ratio” value: 1.15 for the first, 1.04 for the second.

Going from U7G U8G G9C U11A C13U to U7G U8G G9C U11C C12A C13U, the “aptazyme ON/OFF ratio” value rises from 1.36 to 4.45.

Compared with U7G U8G G9C U11C C12A C13G, U7G U8G G9C U11C C12A C13A is higher in “aptazyme ON/OFF ratio” value: 1.13 for the first, 1.37 for the second.

Compared with U7G U8G U10A C12G C13U, U7G U8G U10A C12G C13G is higher in “aptazyme ON/OFF ratio” value: 0.978 for the first, 1.2 for the second.

U7G U8G U10A C12G C13A and U7G U8G G9U U10G C12A C13U are the same in “aptazyme ON/OFF ratio” value: 1.16 for the first, 1.16 for the second.

Compared with U7G U8G G9U U10G C12A C13A, U7G U8G G9U U10G C12A C13G is higher in “aptazyme ON/OFF ratio” value: 1.09 for the first, 1.14 for the second.

First: U7G U8G G9U U11A C12A C13U
Second: U7G U8G G9U U11A C12A C13A
The “aptazyme ON/OFF ratio” value of the first is higher: 1.18 for the first, 1.07 for the second.

Compared with U7G U8G G9U U11A C12A C13G, U7G U8G U10A U11A C12A C13A is higher in “aptazyme ON/OFF ratio” value: 1.13 for the first, 1.31 for the second.

Going from U7G U8G U10A U11A C12A C13U to U7G U8G U10A U11A C12A C13G, the “aptazyme ON/OFF ratio” value rises from 1.21 to 1.22.

First: U7G U8G G9U U10C U11A C12U C13A
Second: U7G U8G G9U U10C U11A C12U C13G
The “aptazyme ON/OFF ratio” value of the first is lower: 1.35 for the first, 1.37 for the second.

First: U7G U8G G9U U10C U11A C12U C13U
Second: U7G U8G U10A C12A C13G
The “aptazyme ON/OFF ratio” value of the first is higher: 1.36 for the first, 1.3 for the second.

Compared with U7G U8G U10A C12A C13U, U7G U8G U10A C12A C13A is lower in “aptazyme ON/OFF ratio” value: 1.33 for the first, 1.18 for the second.

First: U7G U8G G9U U10A U11C C12A C13G
Second: U7G U8G G9U U10A U11C C12A C13A
The “aptazyme ON/OFF ratio” value of the first is lower: 1.08 for the first, 1.1 for the second.

Going from U7G U8G G9U U10A U11C C12A C13U to U7G U8G G9C U11C C12U C13A, the “aptazyme ON/OFF ratio” value rises from 1.17 to 1.43.

Going from U7G U8G G9C U11C C12U C13G to U7G U8G G9C U11C C12U C13U, the “aptazyme ON/OFF ratio” value falls from 1.37 to 1.26.

Going from U7G U8G G9U U11A C12U to U7G U8G G9U U11A C12G, the “aptazyme ON/OFF ratio” value falls from 1.54 to 1.29.

Compared with U7G U8G G9U U11A C12A, U7G U8G G9U U10A U11A C13A is lower in “aptazyme ON/OFF ratio” value: 1.43 for the first, 1.14 for the second.

First: U7G U8G G9U U10A U11A C13U
Second: U7G U8G G9U U10A U11A C13G
The “aptazyme ON/OFF ratio” value of the first is higher: 1.28 for the first, 1.08 for the second.

U7G U8G G9U U10G U11C C12A C13U and U7G U8G G9U U10G U11C C12A C13A are the same in “aptazyme ON/OFF ratio” value: 1.1 for the first, 1.1 for the second.

Compared with U7G U8G G9U U10G U11C C12A C13G, U7G U8G G9U U10C U11C C13A is higher in “aptazyme ON/OFF ratio” value: 1.11 for the first, 1.28 for the second.

Compared with U7G U8G G9U U10C U11C C13U, U7G U8G G9U U10C U11C C13G is lower in “aptazyme ON/OFF ratio” value: 1.37 for the first, 1.21 for the second.

Compared with U7G U8G G9U U10A U11G C12G C13U, U7G U8G G9U U10A U11G C12G C13A is higher in “aptazyme ON/OFF ratio” value: 1.05 for the first, 1.13 for the second.

Going from U7G U8G G9U U10A U11G C12G C13G to U7G U8G G9U U10C U11G C12G C13G, the “aptazyme ON/OFF ratio” value rises from 1.06 to 1.15.

Compared with U7G U8G G9U U10C U11G C12G C13U, U7G U8G G9U U10C U11G C12G C13A is lower in “aptazyme ON/OFF ratio” value: 1.26 for the first, 1.16 for the second.

Compared with U7G U8G G9U U10G U11G C12U C13A, U7G U8G G9U U10G U11G C12U C13G is higher in “aptazyme ON/OFF ratio” value: 1.11 for the first, 1.12 for the second.

First: U7G U8G G9U U10G U11G C12U C13U
Second: U7G U8G G9U U10A U11A C12A C13A
The “aptazyme ON/OFF ratio” value of the first is higher: 1.18 for the first, 1.02 for the second.

Going from U7G U8G G9U U10A U11A C12A C13G to U7G U8G G9U U10A U11A C12A C13U, the “aptazyme ON/OFF ratio” value rises from 1.13 to 1.29.

First: U7G U8G G9U U10C U11G C12U C13A
Second: U7G U8G G9U U10C U11G C12U C13U
The “aptazyme ON/OFF ratio” value of the first is lower: 1.23 for the first, 1.4 for the second.

Compared with U7G U8G G9U U10C U11G C12U C13G, U7G U8G G9U U10A U11C C12U C13U is higher in “aptazyme ON/OFF ratio” value: 1.24 for the first, 1.29 for the second.

In the case of U7G U8G G9U U10A U11C C12U C13G, the “aptazyme ON/OFF ratio” value is reported as 1.08.
